B1: Rab guanine nucleotide exchange factor SEC2 (Saccharomyces cerevisiae), P17065 (parent)
chain: MDASEEAKRVSIQVTSLSTQLIESVDKQSHLEEQLNKSLKTIASQKAAIENYNQLKEDYNTLKRELSDRDDEVKRLREDIAKENELRTKAEEEADKLNKEVEDLTASLFDEANNMVADARKEKYAIEILNKRLTEQLREKDTLLDTLTLQLKNLKKVMHSLDNESTVTNNSNRYSTILSDSATSSSTSLNKVPTSYSLASQDIYSGIVYSPSISSIRYDISLYNEFLKFVAALPRCENIKATSTESKLIRRLVNDEIQPILKIDNASGIGWLVKKTLLSLIIDGLVVVEPLSGVNATYQIGYNSSSPAKQATSNMPKMFKFPLDSPPVAVHAACSFCGESRDDIIEHARMYILKTLHKTDDGKEQVTNTYPLCHWCLLKLRQTCEIFAFLRSLKVGAWHLEKLTTQNITKEDLEKFSEVTKHTKRDGRVSSQDKKTKRLSFMAGLGINSSTKNKPKMEIFSSETNAKPGQPTTNIQRAWLQLCKLRCILHWTHIGIWAVDDSISSKIGPLVEDDSDEDQNDAISVRLQDKALWKQDAKRPFSSSSAEESQKSDAFDFESGDMENEITGESSSDESSSDGSSTDNSTADSSSEDESSLADSTTSSADSSSPESIDNGEGDDTVTKDDKSSIKSANNNEENSDCGDKKGRSIIKKKAPQRKIQKKKLLQDLDDLEEQFREESAIDQTEFENAESNVKQNISSKRASSGDENSKKDNNEKTLKTNLTIGDKTQEQIGENSPSSGLHASSSNDDNFDDAQEQQ
partner: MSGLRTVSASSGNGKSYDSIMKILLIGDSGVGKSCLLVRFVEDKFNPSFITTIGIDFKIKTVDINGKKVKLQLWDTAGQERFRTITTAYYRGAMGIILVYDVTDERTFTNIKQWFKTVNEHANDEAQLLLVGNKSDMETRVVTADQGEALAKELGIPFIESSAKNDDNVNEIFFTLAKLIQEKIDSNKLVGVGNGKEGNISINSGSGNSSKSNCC

Variants of: B1
Details: with sec4_yeast SEC4, P07560

| Variant | effect of a mutation on the interaction |
| --- | --- |
| L104A | disrupting interaction |
| E100A | disrupting interaction |
| F109A | disrupting interaction |
